According to paper PMC9935876, “Structure of the planar cell polarity cadherins Fat4 and Dachsous1” (Nature Communications, 2023):
Positions count from the first letter of the chain named. Names may count otherwise. “And” between values parts separate entries of the source, which are not always exact repeats. Equal entries are not always repeated. One block for each binder: values may come before it.

How the values were obtained:
Conditions in all cases: both partners purified
[1] = biological target: T1, Human Fat4(EC1-4) F358A (human, UniProt Q6V0I7 43-475, F358A); test: ITC; MicroCal ITC200; Fat4 constructs 30 µM in the sample cell, Dchs1 constructs 300 µM as titrants; 20 °C; one set of sites
T1 construct: human Fat4, EC1-EC4, aa43-475, with F358A in EC4; also called Fat4F358A(EC1-4); Fat4F358A
T1 sequence: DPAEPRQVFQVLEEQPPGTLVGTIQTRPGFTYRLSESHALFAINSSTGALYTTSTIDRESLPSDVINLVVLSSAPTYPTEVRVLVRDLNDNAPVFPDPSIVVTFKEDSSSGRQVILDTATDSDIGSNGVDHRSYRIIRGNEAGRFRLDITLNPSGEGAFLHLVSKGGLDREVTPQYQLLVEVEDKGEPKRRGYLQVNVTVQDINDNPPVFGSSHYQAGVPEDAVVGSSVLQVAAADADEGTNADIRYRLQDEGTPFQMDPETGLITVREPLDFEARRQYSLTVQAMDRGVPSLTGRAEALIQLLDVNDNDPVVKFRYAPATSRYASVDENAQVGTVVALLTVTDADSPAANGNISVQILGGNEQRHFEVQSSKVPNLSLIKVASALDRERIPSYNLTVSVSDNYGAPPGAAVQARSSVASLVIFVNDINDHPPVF

[2] = biological target: T2, Human Fat4(EC1-4) (human, UniProt Q6V0I7 43-475); test: as above
T2 construct: human Fat4, extracellular cadherin domains EC1-EC4, aa43-475; A 3C protease site stands between the protein and the C-terminal BAP-tag and His6; also called WT
T2 sequence: T1 sequence with A318F

[3] = biological target: T3, Human Fat4(EC1-4) R152A (human, UniProt Q6V0I7 43-475, R152A); test: as above
T3 construct: human Fat4, EC1-EC4, aa43-475, with R152A in EC2; also called Fat4R152A(EC1-4); Fat4R152A
T3 sequence: T1 sequence with R112A, A318F

[4] = biological target: T4, Human Fat4(EC1-4) (human, UniProt Q6V0I7 43-475); test: ITC; MicroCal ITC200; Fat4 construct 30 µM in the sample cell, Dchs1 construct 300 µM as titrant; 20 °C; fitted with one set of sites; two independent experiments
T4 construct: Fat4, human, EC1-EC4, aa43-475; Tags were cleaved only for the constructs meant for co-crystallisation; nothing is said for ITC; also called Fat4 EC1–EC4
T4 sequence: T1 sequence with A318F

[5] = biological target: T5, Human Fat4F358A(EC1-4) (human, UniProt Q6V0I7 43-475, F358A); test: as above
T5 construct: Fat4, human, EC1-EC4, aa43-475, with F358A in EC4
T5 sequence: T1 sequence

[6] = biological target: T4, Human Fat4(EC1-4); test: as above; remark: listed apart in the source

- stoichiometry N [1]: 0.915 ± 0.0119 sites
- stoichiometry N [2]: 1.06 ± 0.0114 sites
- stoichiometry N [3]: 0.965 ± 0.0359 sites
B1: Human Dchs1(EC1-4) (domain or fragment)
chain: DPQAGSLDLQIDEEQPAGTLIGDISAGLPAGTAAPLMYFISAQEGSGVGTDLAIDEHSGVVRTARVLDREQRDRYRFTAVTPDGATVEVTVRVADINDHAPAFPQARAALQVPEHTAFGTRYPLEPARDADAGRLGTQGYALSGDGAGETFRLETRPGPDGTPVPELVVTGELDRENRSHYMLQLEAYDGGSPPRRAQALLDVTLLDINDHAPAFNQSRYHAVVSESLAPGSPVLQVFASDADAGVNGAVTYEINRRQSEGDGPFSIDAHTGLLQLERPLDFEQRRVHELVVQARDGGAHPELGSAFVTVHVRDANDNQPSMTVIFLSADGSPQVSEAAPPGQLVARISVSDPDDGDFAHVNVSLEGGEGHFALSTQDSVIYLVCVARRLDREERDAYNLRVTATDSGSPPLRAEAAFVLHVTDVNDNAPAF
notes: human Dachsous1 (Dchs1), extracellular cadherin domains EC1-EC4, aa43-472; A 3C protease site stands between the protein and the C-terminal BAP-tag and His6; also called Dachsous1; WT

- Kd [4]: 488 nM and 463 nM
- Kd [5]: 950 nM and 770 nM
B2: Human Dchs1(EC1-4) (domain or fragment)
chain: B1 chain
notes: Dchs1 (Dachsous1), human, EC1-EC4, aa43-472; also called Dachsous1 EC1–EC4

- Kd [6]: 1560 nM and 2480 nM
B3: Human Dchs1F79A(EC1-4) (domain or fragment)
chain: B1 chain with F39A
notes: Dchs1 (Dachsous1), human, EC1-EC4, aa43-472, with F79A in EC1
